Results reported in the supplement of paper PMC10065799, “High-throughput profiling of sequence recognition by tyrosine kinases and SH2 domains using bacterial peptide display” (eLife, 2023).

Assays:
[1] = target: Grb2 SH2 (UniProt P62993); assay: SH2 binding enrichment of the phosphorylated peptide, bacterial display (enrichment ratio); higher = better substrate or ligand; peptides without Tyr show the background
[2] = target: c-Src SH2; assay: as above
[3] = target: SHP2-C SH2; assay: as above
[4] = target: EPHB2 (UniProt P29323); assay: phosphorylation enrichment, bacterial display (enrichment ratio); higher = better substrate or ligand; peptides without Tyr show the background
Chain of EPHB2 (P29323 whole entry, looked up): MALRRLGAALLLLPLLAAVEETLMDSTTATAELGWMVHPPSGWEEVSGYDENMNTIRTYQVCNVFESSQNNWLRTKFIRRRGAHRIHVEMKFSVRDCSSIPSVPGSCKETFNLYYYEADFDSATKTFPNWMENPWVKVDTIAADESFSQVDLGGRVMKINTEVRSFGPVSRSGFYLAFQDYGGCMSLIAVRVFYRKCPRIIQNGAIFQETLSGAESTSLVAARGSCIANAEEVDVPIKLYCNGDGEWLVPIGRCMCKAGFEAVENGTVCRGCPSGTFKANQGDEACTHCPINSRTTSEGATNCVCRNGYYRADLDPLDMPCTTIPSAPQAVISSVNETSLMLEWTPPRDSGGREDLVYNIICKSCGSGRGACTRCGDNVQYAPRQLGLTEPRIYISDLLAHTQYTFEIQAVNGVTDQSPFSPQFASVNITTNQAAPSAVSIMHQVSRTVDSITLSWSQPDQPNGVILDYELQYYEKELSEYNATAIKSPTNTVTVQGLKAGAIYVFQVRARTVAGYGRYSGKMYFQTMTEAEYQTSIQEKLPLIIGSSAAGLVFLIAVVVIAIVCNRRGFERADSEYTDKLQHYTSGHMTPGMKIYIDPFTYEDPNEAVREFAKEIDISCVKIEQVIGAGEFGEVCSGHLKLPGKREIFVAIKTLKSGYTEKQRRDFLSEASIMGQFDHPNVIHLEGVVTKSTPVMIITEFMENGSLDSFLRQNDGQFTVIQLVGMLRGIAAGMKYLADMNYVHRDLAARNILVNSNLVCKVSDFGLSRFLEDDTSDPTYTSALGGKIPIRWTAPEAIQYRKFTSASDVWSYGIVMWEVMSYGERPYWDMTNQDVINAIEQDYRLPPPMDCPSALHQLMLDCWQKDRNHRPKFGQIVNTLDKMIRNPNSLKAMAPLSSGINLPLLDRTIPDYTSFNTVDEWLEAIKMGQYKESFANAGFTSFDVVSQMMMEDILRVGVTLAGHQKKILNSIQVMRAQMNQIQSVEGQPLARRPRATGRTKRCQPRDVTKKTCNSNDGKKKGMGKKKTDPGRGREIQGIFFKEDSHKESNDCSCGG

[5] = target: EPHB1 (UniProt P54762); assay: as above
Chain of EPHB1 (P54762 whole entry, looked up): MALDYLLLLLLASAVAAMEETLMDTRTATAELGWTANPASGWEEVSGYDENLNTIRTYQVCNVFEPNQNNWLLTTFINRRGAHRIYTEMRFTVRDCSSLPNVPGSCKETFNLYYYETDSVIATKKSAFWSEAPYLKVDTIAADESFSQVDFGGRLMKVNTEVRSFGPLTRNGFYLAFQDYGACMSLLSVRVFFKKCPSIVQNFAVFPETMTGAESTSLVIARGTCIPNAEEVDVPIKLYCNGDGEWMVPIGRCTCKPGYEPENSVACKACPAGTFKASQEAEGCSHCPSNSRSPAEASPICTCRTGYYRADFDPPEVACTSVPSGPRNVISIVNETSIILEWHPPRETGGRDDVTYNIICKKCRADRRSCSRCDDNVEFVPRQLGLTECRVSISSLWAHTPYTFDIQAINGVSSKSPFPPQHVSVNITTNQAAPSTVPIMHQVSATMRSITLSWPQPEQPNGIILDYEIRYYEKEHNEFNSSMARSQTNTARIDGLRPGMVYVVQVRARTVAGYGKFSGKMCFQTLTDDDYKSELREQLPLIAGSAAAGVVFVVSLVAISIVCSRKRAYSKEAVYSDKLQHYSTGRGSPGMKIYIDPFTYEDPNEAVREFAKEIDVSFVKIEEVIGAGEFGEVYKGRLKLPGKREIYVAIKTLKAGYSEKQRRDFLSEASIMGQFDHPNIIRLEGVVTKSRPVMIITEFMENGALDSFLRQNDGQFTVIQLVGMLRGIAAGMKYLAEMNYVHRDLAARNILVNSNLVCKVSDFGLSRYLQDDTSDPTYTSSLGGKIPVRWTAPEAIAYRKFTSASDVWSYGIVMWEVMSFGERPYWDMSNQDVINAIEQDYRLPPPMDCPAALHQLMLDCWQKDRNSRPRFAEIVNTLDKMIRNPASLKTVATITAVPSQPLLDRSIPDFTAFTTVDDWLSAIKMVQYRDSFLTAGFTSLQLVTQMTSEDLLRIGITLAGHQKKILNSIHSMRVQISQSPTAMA

[6] = system: c-Abl (mouse); assay: as above
[7] = target: Fes (UniProt P07332); assay: as above
[8] = target: FGFR1 (UniProt P11362); assay: as above
[9] = target: Jak2 (UniProt O60674); assay: as above
Chain of Jak2 (O60674 whole entry, looked up): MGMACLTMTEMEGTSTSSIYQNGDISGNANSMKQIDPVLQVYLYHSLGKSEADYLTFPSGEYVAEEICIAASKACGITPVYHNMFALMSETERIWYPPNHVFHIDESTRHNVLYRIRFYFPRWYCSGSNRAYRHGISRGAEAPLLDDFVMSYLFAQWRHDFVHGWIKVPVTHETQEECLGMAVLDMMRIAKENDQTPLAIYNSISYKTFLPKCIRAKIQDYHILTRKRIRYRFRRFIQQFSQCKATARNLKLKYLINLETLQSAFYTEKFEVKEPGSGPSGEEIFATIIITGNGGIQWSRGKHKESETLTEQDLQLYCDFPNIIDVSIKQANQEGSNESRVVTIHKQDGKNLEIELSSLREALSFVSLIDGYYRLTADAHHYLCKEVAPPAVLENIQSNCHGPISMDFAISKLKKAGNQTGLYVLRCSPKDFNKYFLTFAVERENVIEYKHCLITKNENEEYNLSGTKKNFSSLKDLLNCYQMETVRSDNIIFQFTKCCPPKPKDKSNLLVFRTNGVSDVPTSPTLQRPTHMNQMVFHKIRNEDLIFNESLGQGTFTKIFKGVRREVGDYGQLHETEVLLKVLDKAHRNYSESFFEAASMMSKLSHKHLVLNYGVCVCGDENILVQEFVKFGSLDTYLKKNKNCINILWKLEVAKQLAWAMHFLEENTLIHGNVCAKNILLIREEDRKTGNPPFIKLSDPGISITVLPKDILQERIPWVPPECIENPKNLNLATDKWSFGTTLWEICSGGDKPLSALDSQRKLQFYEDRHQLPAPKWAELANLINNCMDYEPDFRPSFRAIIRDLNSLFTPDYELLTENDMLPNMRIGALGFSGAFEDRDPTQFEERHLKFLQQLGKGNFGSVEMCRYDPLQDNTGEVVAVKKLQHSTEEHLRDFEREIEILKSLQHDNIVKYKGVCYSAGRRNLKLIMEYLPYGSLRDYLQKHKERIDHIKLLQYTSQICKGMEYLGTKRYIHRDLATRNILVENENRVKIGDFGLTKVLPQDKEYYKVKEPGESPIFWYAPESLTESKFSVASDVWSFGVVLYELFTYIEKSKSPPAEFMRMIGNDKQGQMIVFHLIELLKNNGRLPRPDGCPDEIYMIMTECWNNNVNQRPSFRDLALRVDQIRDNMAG

[10] = target: MERTK (UniProt Q12866); assay: as above
Chain of MERTK (Q12866 whole entry, looked up): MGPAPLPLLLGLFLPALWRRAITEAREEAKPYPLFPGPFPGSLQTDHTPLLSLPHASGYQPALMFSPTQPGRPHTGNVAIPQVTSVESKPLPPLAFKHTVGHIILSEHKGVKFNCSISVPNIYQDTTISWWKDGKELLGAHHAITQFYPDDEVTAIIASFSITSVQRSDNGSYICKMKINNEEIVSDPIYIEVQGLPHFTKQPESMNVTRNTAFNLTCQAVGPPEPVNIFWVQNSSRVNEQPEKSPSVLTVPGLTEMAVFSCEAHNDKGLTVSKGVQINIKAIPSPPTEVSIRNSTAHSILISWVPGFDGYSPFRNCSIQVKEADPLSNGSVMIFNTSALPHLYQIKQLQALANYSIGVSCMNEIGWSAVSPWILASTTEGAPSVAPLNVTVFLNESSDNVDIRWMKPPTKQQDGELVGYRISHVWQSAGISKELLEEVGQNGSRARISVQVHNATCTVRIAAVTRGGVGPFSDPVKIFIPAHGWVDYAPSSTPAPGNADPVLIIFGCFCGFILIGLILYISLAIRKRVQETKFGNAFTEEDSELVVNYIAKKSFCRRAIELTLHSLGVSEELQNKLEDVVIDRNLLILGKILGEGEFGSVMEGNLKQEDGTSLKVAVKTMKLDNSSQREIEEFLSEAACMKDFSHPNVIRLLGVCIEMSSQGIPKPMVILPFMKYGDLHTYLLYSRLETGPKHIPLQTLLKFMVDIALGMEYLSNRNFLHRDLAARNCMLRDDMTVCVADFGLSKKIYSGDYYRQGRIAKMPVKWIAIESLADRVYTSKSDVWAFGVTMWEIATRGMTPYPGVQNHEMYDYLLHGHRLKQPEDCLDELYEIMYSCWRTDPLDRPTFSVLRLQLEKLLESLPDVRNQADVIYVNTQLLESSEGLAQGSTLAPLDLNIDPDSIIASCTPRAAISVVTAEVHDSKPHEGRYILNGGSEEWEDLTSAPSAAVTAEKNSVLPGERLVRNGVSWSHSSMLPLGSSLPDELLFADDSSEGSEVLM

[11] = system: Fer (mouse); assay: as above
[12] = target: Fyn (UniProt P06241); assay: as above
Chain of Fyn (P06241 whole entry, looked up): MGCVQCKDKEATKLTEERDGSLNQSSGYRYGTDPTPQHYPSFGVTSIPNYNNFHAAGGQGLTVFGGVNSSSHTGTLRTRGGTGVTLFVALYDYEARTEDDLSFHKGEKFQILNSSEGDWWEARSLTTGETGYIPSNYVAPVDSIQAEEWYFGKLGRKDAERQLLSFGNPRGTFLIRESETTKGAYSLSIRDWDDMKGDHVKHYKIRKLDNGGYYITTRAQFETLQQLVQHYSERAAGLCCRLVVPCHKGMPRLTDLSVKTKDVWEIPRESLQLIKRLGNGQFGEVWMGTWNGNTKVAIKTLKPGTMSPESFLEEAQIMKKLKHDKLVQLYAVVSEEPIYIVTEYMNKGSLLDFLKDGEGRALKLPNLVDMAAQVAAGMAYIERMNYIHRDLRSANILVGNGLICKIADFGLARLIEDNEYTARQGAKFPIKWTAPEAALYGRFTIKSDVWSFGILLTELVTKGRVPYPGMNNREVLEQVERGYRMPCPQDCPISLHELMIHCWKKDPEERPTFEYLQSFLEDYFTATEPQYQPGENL

[13] = system: c-Src; assay: as above
[14] = system: AncSZ; assay: as above
[15] = target: Hck (UniProt P08631); assay: as above
[16] = target: FGFR3 (UniProt P22607); assay: as above
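Wherever SH2 binding enrichment of the phosphorylated peptide, bacterial display is given: peptide library displayed on the E. coli surface as eCPX fusions, selected cells deep-sequenced, score is each peptide's frequency after selection divided by its frequency in the input.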
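Wherever phosphorylation enrichment, bacterial display is given: 11-residue human phosphosite peptides and single-mutation variants displayed on the E. coli surface, counted by deep sequencing, each peptide's frequency after selection divided by its frequency in the unselected input library; frequency after pTyr selection over input frequency; kinase dosed for 20-30% of maximal phosphorylation in three min.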

Chain of Grb2 SH2 (P62993 whole entry, looked up): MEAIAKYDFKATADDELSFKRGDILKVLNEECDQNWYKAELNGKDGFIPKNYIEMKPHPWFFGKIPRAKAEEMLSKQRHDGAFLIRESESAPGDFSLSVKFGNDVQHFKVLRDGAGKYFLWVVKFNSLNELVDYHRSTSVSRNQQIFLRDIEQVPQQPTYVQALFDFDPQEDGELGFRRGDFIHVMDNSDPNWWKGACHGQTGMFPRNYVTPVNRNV

Sequence	SH2 binding enrichment [1]	SH2 binding enrichment [2]	SH2 binding enrichment [3]	phosphorylation enrichment [4]	phosphorylation enrichment [5]	phosphorylation enrichment [6]	phosphorylation enrichment [7]	phosphorylation enrichment [8]	phosphorylation enrichment [9]	phosphorylation enrichment [10]	phosphorylation enrichment [11]	phosphorylation enrichment [12]	phosphorylation enrichment [13]	phosphorylation enrichment [14]	phosphorylation enrichment [15]	phosphorylation enrichment [16]
GANSEYIIAEK [ECHS1_Y35_F33S]	1	0.435	0.487	0.618	0.711	0.764	1.01	0.483	1.1	0.581	0.468	0.64	0.646	1.26	0.587	0.61
FSTPPYLLEAA [BRIP1_Y921_S919P_YF]	0.952	0.607	0.655	0.601	0.521	0.76	1	0.63	0.909	0.497	0.579	0.619	0.669	0.95	0.434	0.707
TIQIMYGCDVG [HLA-A_Y123]	0.857	0.654	0.75	0.664	0.647	1.18	1.43	0.476	1.64	0.439	0.597	0.438	0.633	1.37	0.581	0.817
GIYKDYYRYNF [PLA2G2D_Y85_S80G]	1.13	1.03	1.31	5.13	5.44	5.76	0.805	12.2	7.91	4.72	0.938	5	4.78	1.4	3.32	9.59
WISNRYPDFSS [PRPH2_Y184_L185P]	0.964	0.5	0.71	0.552	0.434	0.66	0.953	0.533	0.841	0.487	0.484	0.404	0.52	0.798	0.497	0.685
SMEGLYSSTQD [CLIC5_Y111]	0.777	0.542	0.446	2.27	1.94	1.03	1.71	0.698	1.36	2.43	3.64	3.51	3.13	1.57	4.12	0.905
SVKVFYKKCWS [EPHA7_Y202_YF]	0.747	0.396	0.707	0.647	0.621	0.965	1.49	0.507	1.21	0.409	0.532	0.424	0.59	1.14	0.457	0.841
YRDMDYRSYPH [RBM10_Y41_R46H]	0.998	0.938	0.825	0.486	0.578	0.5	0.64	3.25	0.621	0.357	0.487	0.412	0.376	0.567	0.457	2.1
VTAALYGRLYE [BTD_Y536]	0.899	1.12	0.838	1.43	1.06	0.888	1.04	0.498	0.904	2.68	1.31	5.26	4.81	0.883	5.15	0.724
RGGWAYVLHPT [TRMT61A_Y67_V66A]	0.905	0.437	0.654	0.816	0.711	0.93	1.51	0.663	1.1	0.52	0.611	0.505	0.671	1.34	0.509	0.698
ANAFIYVVQLP [L1CAM_Y420_YF]	0.85	0.478	0.668	0.743	0.701	0.724	1.32	0.538	1.02	0.909	0.559	0.631	0.678	1.19	0.693	0.855
FLENFYDLKKD [MMP3_Y42_YF]	0.821	0.519	0.788	0.563	0.453	0.663	1.02	0.452	0.922	0.549	0.472	2.57	1.9	1.24	1.92	0.551
FIILIYAMKKK [SLCO1B1_Y645_YF]	1.83	0.965	1.66	0.385	0.179	0.51	0.583	0.509	0.447	1.35	0.354	0.321	0.32	0.323	0.465	0.377
SDVCMYRKNTY [SYNE2_Y570_I574T]	0.796	0.47	0.592	0.519	0.477	0.684	0.905	0.429	0.67	0.403	0.401	0.405	0.377	0.76	0.487	0.695
SVTCTCSPALN [TP53_Y126_Y126C]	0.856	0.472	0.508	0.614	0.704	0.907	1.48	0.585	1.15	0.395	0.533	0.479	0.415	1.16	0.526	0.889
ISKQEYDEAGP [ACTC1_Y364]	0.921	6.16	0.718	0.741	0.65	0.79	1.29	0.522	1.31	0.518	0.627	0.602	0.598	1.28	0.616	0.819
ARLEYCENEKK [IRS1_Y47_Y47C]	0.594	0.49	0.766	0.475	0.552	0.486	0.815	0.786	0.687	0.449	0.464	0.567	0.486	0.795	0.421	0.702

Sequence	SH2 binding enrichment [1]	SH2 binding enrichment [2]	SH2 binding enrichment [3]	phosphorylation enrichment [4]	phosphorylation enrichment [5]	phosphorylation enrichment [6]	phosphorylation enrichment [7]	phosphorylation enrichment [8]	phosphorylation enrichment [9]	phosphorylation enrichment [10]	phosphorylation enrichment [11]	phosphorylation enrichment [12]	phosphorylation enrichment [13]	phosphorylation enrichment [14]	phosphorylation enrichment [15]	phosphorylation enrichment [16]
VNFDYYTVNLG [GFPT1_Y367_D366Y]	1.04	0.741	1.46	5.41	6.6	1.36	1.25	15.6	9.69	4.02	6.01	5.83	4.7	5.81	4.22	14.5
FCVDCYKNFVA [FHL1_Y213_YF]	1.2	0.946	1.02	0.751	0.533	0.776	0.957	0.57	0.898	0.487	0.523	0.562	0.461	0.862	0.529	0.617
GIYEDYVEGLR [MYL6_Y89_T85I]	0.697	0.51	0.717	6.61	5.82	0.727	1.45	0.965	0.946	1.42	6.33	6.03	4.26	1.49	3.65	0.86
INSLKYAYNIS [EIF2B5_Y583]	0.778	0.665	0.598	0.368	0.403	0.421	0.762	0.425	0.569	0.398	0.392	0.414	0.412	0.476	0.401	0.474
GFEEAYSVFKK [PAFAH1B1_Y28_YF]	1.03	0.605	1.76	0.379	0.339	0.756	0.696	0.423	0.514	0.544	0.365	1.29	3.97	0.803	2.51	0.412
VIKDKYPKARY [APTX_Y209]	1.31	1.25	1.05	0.417	0.376	0.692	0.699	0.44	0.83	0.38	0.426	0.256	0.454	0.728	0.373	0.551
LYIDSYEKDVA [PGM1_Y521]	0.86	0.817	0.589	1.15	0.816	0.45	1.5	0.895	1.24	0.717	0.798	0.77	0.69	1.81	0.659	1.14
AVAFVYFKSIG [ADGRL4_Y301_YF]	0.928	0.628	0.686	0.797	0.911	0.938	1.6	0.798	1.15	0.471	0.728	0.643	0.426	1.38	0.626	1.01
VTRDEYPSNPM [CEMIP2_Y1015_I1010V]	0.67	0.564	0.783	0.417	0.411	0.523	0.751	0.323	0.696	0.487	0.339	0.356	0.394	0.6	0.397	0.491
LDLPGYCPLRE [CCDC116_Y291]	0.754	0.611	0.736	0.668	1.09	1.28	1.97	0.916	1.64	0.767	1.09	0.96	0.773	1.55	1.1	1.36
YSQNIYIQNRN [PKP2_Y631]	0.896	0.691	0.906	0.569	0.424	0.6	0.706	0.482	0.59	1.43	0.489	0.443	0.528	0.804	0.633	0.483
IHTDAYVRAMT [RPE65_Y89_R85H]	0.76	0.451	0.914	0.414	0.35	0.474	0.589	0.389	0.442	0.319	0.407	0.375	0.363	0.475	0.397	0.401
IKNFKYGIEEH [GJA1_Y137_K134N]	0.865	0.416	0.456	0.508	0.351	0.38	0.715	0.388	0.682	0.383	0.311	0.335	0.368	0.621	0.414	0.549
DDDPEDRKFLE [UPF3B_Y160_Y160D]	0.938	0.579	0.613	0.501	0.586	0.867	1.24	0.51	1.17	0.541	0.56	0.56	0.503	1.12	0.594	0.641
LSCLAYSGKDA [FXN_Y205_S202C]	0.719	0.537	0.626	0.643	0.844	1.15	1.44	0.495	1.24	0.558	0.525	0.52	0.665	1.23	0.527	0.976
TGQERYRAITS [RAB11B_Y73_A68T]	0.836	0.485	0.695	0.291	0.322	0.368	0.588	0.423	0.369	0.337	0.346	0.451	0.344	0.516	0.519	0.392
